Measurements reported in PMC7118729.

Target: SARS-CoV non-structural protein 15 (Nsp15) [change] (SARS-CoV)
Assay: SEC

SARS-CoV non-structural protein 15 (Nsp15) [change] (enzyme)
stoichiometry N: 3
